Measured values reported in patent publication US20030045688A1, “Human interleukin-four induced protein” (priority 2000, published 2003).

Experiments:
[1] = FIG. 1 enzyme assay using OPD (L-amino acid oxidase activity); type: biochemical; details: for substrate preference of LAAO activity: L-amino acid substrates; for pH optimum of L-amino acid oxidase (LAAO) activity: pH value at which activity is maximal
Description: 3,3′,5,5′-tetramethylbenzidine (TMB) or o-phenylenediamine (OPD) is used as a chromogenic substrate in the FIG. 1 assay. TMB is advantageous because it is not mutagenic and therefore not likely to be carcinogenic, whereas OPD and o-dianisidine are mutagenic.
To perform these measurements, we developed a FIG. 1 enzyme assay using OPD as a substrate.
For the FIG. 1 enzyme assay using OPD, 10 μl of sample is added to a 190 μl assay mixture resulting in a 200 μl reaction with final concentration of 5 to 50 mM L-phenylalanine (Sigma, St. Louis, Mo.), 10 U/ml peroxidase (Sigma), 0.5 mg/ml OPD (Sigma), and 52.5 mM sodium acetate (pH 4). The reaction is incubated for 2 hours at 37° C., after which the reaction is stopped by the addition of 11 μl 36N sulfuric acid (H2SO4). The quantity of H2O2 generated is determined by measuring absorbance at 490 nm. FIG. 1 enzyme activity in Units is determined by comparison with a standard curve generated using known concentrations of H2O2. The amount of H2O2 (μM) corresponding to the observed absorbance at 490 nm is the amount of L-phenylalanine oxidized, since one H2O2 molecule is produced per L-amino acid oxidized. Therefore, FIG. 1 enzyme units can be calculated as follows:
Units (μmol/min)=(μM)/min×V
One unit oxidizes one micromole of L-phenylalanine per minute at 37° C. and pH 4.

[2] = test system: murine B cell line (M.12.4.1); assay: Transfection of murine B cell line with vectors expressing mouse FIG. 1; cell toxicity; type: cell-based; details: clones expressing FIG. 1 in the insoluble cell fraction; no stable transfectants obtained
Source text: A murine B cell line (M.12.4.1) and fibroblast line (NIH3T3) is transfected with vectors expressing mouse FIG. 1. Specifically, a 1985 bp BamHI fragment containing the full length mouse FIG. 1 cDNA is inserted into the BamHI site of the pREP9 vector (InVitrogen, Carlsbad, Calif.), resulting in pMN10-9, a plasmid that expresses FIG. 1 mRNA from the vector's RSV 3′ LTR promoter. A 1930 bp PvuII/EcoRI fragment containing the full length mouse FIG. 1 cDNA is inserted into the Ecl126II/EcoRI sites of pIRES2-EGFP (Clontech), resulting in plasmid mFIG. 1-iGFP (also known as pAFFP), a plasmid that expresses FIG. 1 mRNA from the vector's CMV promoter.
NIH 3T3 cells are transfected with plasmid DNA using the calcium phosphate method. In particular, a Calcium Phosphate Mammalian Cell Transfection Kit (5 Prime→3 Prime, Inc., Boulder, Colo.) or Calcium Phosphate Transfection System (Life Technologies, Inc., Rockville, Md.) is used. A 40 μg plasmid DNA/calcium phosphate precipitate is prepared according to manufacturer's protocol and used to transfect 2×10^6 cells. M12.4. 1 cells are transfected by electorporation or with an Effectene Transfection Reagent (Qiagen, Inc., Valencia, Calif.). […]
During the selection of M.12.1 bulk transfectants, LAAO activity is detected after 15 days, peaking at 17 days, declining after 20 days to undetectable using procedures described above. […]

[3] = listed as interleukin four induced protein

B1: FIG. 1: mouse immediate early interleukin-four induced protein with L-amino acid oxidase activity (SEQ ID NO:1), expressed in transfected cells (protein, listed as Mus sp.)
chain: MAGLALRLVLAATLLGLAGSLDWKAASSLNPIEKCMEDHDYEQLLKVVTLGLNRTSKPQKVVVVGAGVAGLVAAKMLSDAGHKVTILEADNRIGGRIFTFRDEKTGWIGELGAMRMPSSHRILHKLCRTLGLNLTQFTQYDENTWTEVHNVKLRNYVVEKMPEKLGYNLNNRERGHSPEDIYQMALNKAFKDLKALGCKKAMNKFNKHTLLEYLLEEGNLSRPAVQLLGDVMSEEGFFYLSFAEALRAHACLSDRLRYSRIVGGWDLLPRALLSSLSGALLLNAPVVSITQGRNDVRVHIATSLHSEKTLTADVVLLTASGPALQRITFSPPLTRKRQEALRALHYVAASKVFLSFRRPFWHEEHIEGGHSNTDRPSRLIFYPARGEGSLLLASYTWSDAAAPFAGLSTDQTLRLVLQDVAALHGPVVFRLWDGRGVVKRWAEDPHSQGGFVVQPPLYGREAEDYDWSAPFGRIYFAGEHTALPHGWVETAVKSGLRAAVRINNNYGYGEVDPQMMEHAYAEANYLDQYPEGERPEEQQAREEVSPDEQEPSHKHLLVETSPEGQQHAFVEAIPELQGHVFVETVPQEKGHAHQNIYPSEHVQVHGEVIPEWHGHGGSGTPQMHRVGDHS
- substrate preference of LAAO activity [1]: prefers aromatic amino acids as a substrate, with phenylalanine (Phe) being the optimal substrate
- substrate preference of LAAO activity ([1]; listed as FIG. 1 protein): prefers aromatic L-amino acids for substrates, particularly L-phenylalanine
- substrate preference of LAAO activity [1, 3]: lesser specificity for other aromatic amino acids such as tyrosine and tryptophan
- LAAO activity at pH values other than the optimum ([1]; compared with pH 4.0): lower activity at pH 5, 8 and 9
- pH optimum of L-amino acid oxidase (LAAO) activity [1]: 4
- pH optimum of L-amino acid oxidase (LAAO) activity ([1]; listed as FIG. 1 protein): 4
- pH optimum of L-amino acid oxidase (LAAO) activity [1, 3]: 4.0
- cell death in FIG. 1 transfectants [2]: significant cell death
